T1: human CTLA-4 expressed on cells (293-hCTLA-4 cells; CTLA-4-expressing CHO-K1 cells) (human, UniProt P16410 36-223)
T1 construct: also called CD152; cell-expressed CTLA-4
T1 sequence: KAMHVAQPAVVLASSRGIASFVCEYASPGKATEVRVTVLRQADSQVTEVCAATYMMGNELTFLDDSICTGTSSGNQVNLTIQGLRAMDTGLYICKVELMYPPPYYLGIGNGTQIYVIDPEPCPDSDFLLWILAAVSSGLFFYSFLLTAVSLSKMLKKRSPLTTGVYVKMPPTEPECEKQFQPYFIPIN

T2: cyno CTLA-4 expressed on 293 cells (293-cynoCTLA-4 cells) (cyno, UniProt G7PL88 36-223)
T2 construct: also called cynomolgus CTLA-4
T2 sequence: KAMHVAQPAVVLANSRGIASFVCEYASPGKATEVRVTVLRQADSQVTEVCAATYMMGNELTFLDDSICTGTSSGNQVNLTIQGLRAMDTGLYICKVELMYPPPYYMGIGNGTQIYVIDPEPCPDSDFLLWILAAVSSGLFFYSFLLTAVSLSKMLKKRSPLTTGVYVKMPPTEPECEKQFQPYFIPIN

T3: Recombinant human CTLA-4-his protein (CT4-H5229, Acro Bio) (human, UniProt P16410 36-161)
T3 construct: extracellular domain; Bought protein; also called Human CTLA-4^ECD-his; not shown: his tag
T3 sequence (looked up): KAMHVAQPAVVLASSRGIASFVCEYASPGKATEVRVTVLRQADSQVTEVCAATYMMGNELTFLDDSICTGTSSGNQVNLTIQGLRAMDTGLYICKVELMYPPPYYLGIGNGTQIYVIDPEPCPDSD

B1: CL24 (antibody, human IgG1, V domains shown)
VH: EVQLVETGGGLIQPGGSLRLSCAASGLNVSRHYLSWVRQAPGKGLEWVAVIYSGGGIEYVDSVKGRFTISRDNANNTLYLQMRSLRTEDSAVYYCARAIPRPHGSDIWGQGTMVTVSS
notes: Human heavy-chain-only antibody (HCAb): two heavy chains, no light chain
B2: CL11 (antibody, human IgG1, V domains shown)
VH: EVQLEETGGDLIQPGGSLRLSCTASGFNVSRIYMSWVRQAPGKGLEWVSVIYSGGSIYYADSVRGRFTISRDSSTNTVFLQMNSLRAEDSAVYYCARAVPSAPSSFDIWGQGTMVTVSS
notes: Human heavy-chain-only antibody (HCAb): two heavy chains, no light chain; also called clone 11
B3: CL20 (antibody, human IgG1, V domains shown)
VH: EVQLVESGGGLVQPGGSLRLSCAASGFTFSNYWMHWVRQAPGKGLVWVSRINSDGSNTTYADSVKGRFTISRDNAKNTLYLQMNSLRAEDTAVYYCARWFGEHYYGMDVWGQGTTVTVSS
notes: as for B1
B4: CL11-dPTM (antibody, human IgG1, V domains shown)
VH: EVQLEETGGDLIQPGGSLRLSCTASGFTVSRIYMSWVRQAPGKGLEWVSVIYSGGSIYYADSVRGRFTISRDSSTNTVFLQMNSLRAEDSAVYYCARAVPSAPSSFDIWGQGTMVTVSS
notes: HCAb variant with PTM removal
B5: CL30-dPTM (antibody, human IgG1, V domains shown)
VH: EVQLEETGGDLIQPGGSLRLSCTASGFTVSRIYMSWVRQAPGKGLEWVSVIYSGGSIYYADSVRGRFTISRDSSTNTVYLQMNSLRAEDSAVYYCARAVPHAPSNFDKWGQGTRVTVSS
notes: HCAb variant with PTM removal

Columns and labels:
[1] = target: T4, Recombinant mouse CTLA4-his protein (CT4-M52H5, Acro Bio) (mouse, UniProt P09793 36-161); assay: ELISA on coated recombinant mouse CTLA4-his, HRP anti-human IgG (H+L), OD450
T4 construct: Bought protein; also called murine CTLA-4; not shown: his tag
Experimental: Recombinant human or mouse CTLA4-his protein (CT4-H5229 for human protein, CT4-M52H5 for mouse protein, Acro Bio) was diluted in PBS to a concentration of 2 μg/mL, and 100 μL of the diluted CTLA-4-his protein was added per well to ELISA microplates, which were incubated overnight at 4° C. to coat the plates with the recombinant proteins. The plates were then blocked with ELISA blocking solution (containing 2% BSA, 0.05% (v/v) Tween-20, pH7.4 PBS buffer, w/v) at 37° C. for two hours and then incubated with anti-CTLA-4 antibodies with various concentrations for 1 hour at 37° C. The plates were washed and incubated with horseradish peroxidase (HRP) conjugated goat anti-human IgG (H+L) antibody (A18805, Life technologies) at 37° C. for one hour. 100 μL of tetramethylbenzidine (TMB) were added, and the plates were incubated at room temperature for 15 minutes. 50 μL of 1N HCl were added to terminate the reaction, and the OD450 nm was determined by an ELISA plate reader.

[2] = target: T1, human CTLA-4 expressed on cells …; assay: flow cytometry (MFI) on 293 cells expressing human CTLA-4, Alexa 488 anti-human (H+L) detection
Experimental: (§1) The culture medium was aspirated, and the cells were washed twice with HBSS (Hanks Balanced Salt Solution, Invitrogen). The cells were treated with enzyme-free cell dissociation solution (Versene solution, Invitrogen) and collected. The cells were then washed twice with HBSS, cell counts were determined, and cells were resuspended with HBSS at 2×10⁶ cells/mL. BSA was added to the cell suspension to a final concentration of 1%, and the cells were blocked for 30 minutes on ice and then washed twice with HBSS. The cells were collected after centrifugation and resuspended in FACS buffer (HBSS+1% BSA, v/v) at 2×10⁶ cells/mL. 100 μL of the cell suspension were then added to each well of a 96-well plate. 100 μL of purified anti-CTLA-4 antibodies from Example 2 or control antibodies were added to each well of the 96-well plate and incubated for 1 hour on ice, wherein the heavy chain and light chain of the Ipilimumab analogue had amino acid sequences of SEQ ID NO.: 199 and SEQ ID NO.: 200, respectively. Cells were washed twice with FACS buffer, and 100 μL of Alexa 488-labeled anti-human (H+L) antibody (Invitrogen) were added to the 96-well plate and incubated for 1 hour on ice. The samples were washed three times with FACS buffer, and 100 μL of fixation buffer (containing 4% paraformaldehyde, v/v) were added to each well and incubated for 10 minutes. The cells were then washed twice with FACS buffer and resuspended in 100 μL of FACS buffer.

[3] = target: T2, cyno CTLA-4 expressed on 293 cells …; assay: flow cytometry (MFI) on 293 cells expressing cynomolgus CTLA-4, Alexa 488 anti-human (H+L) detection
Experimental: as §1

[4] = target: T1, human CTLA-4 expressed on cells …; assay: cell-based blocking assay, flow cytometry: % blocking of biotinylated B7.1 ECD-Fc binding to 293-hCTLA-4 cells
Experimental: Cell-Based Receptor-Ligand Binding assay was performed to determine the ability of the anti-CTLA-4 antibodies to block the binding of CTLA-4 to its ligands B7.1. Recombinant B7.1^ECD-Fc protein (B71-H5259, Acro Bio) was biotinylated using EZ-LINK NHS-PEG12-Biotin (Thermo Scientific#21312) according to the manufacturer's instruction. Biotinylated B7.1^ECD-Fc protein was concentrated and free label removed by using Amicon centrifugal filter (10 kDa cut off). The extracellular domain of B7.1 corresponded to amino acids Val35-Asn242 of Uniprot database protein P33681.
The culture medium was aspirated, and the cells were washed twice with PBS. The cells were treated with enzyme-free cell dissociation solution (Versene solution, Invitrogen) and collected. Dissociation solution was neutralized by the addition of 8 mL of culture medium, and cell counts were determined. Cells were centrifuged at 300 g for 5 minutes and resuspended in blocking buffer (containing 2% BSA, pH 7.4 PBS buffer, w/v) at 1×10⁶ cells/mL. The cells were blocked for 15 minutes at 37° C. Meanwhile, the wells of 96-well round-bottom plates were blocked with 200 μL of blocking buffer for 1 hour at 37° C. The blocking buffer was discarded, and 200 μL of cells were dispensed to each well of the 96-well plates (2×10⁵ cells/well). The plates were centrifuged at 500 g for 5 minutes, and the supernatants were discarded. The cells were resuspended in 100 μL of anti-CTLA-4 antibodies prepared in blocking buffer with varying concentrations. 100 μL of biotinylated B7.1 ECD-Fc (60 μg/mL in blocking buffer) were added to each well of 96-well plate and mixed by shaking gently. The plates were incubated at 4° C. for 90 minutes and washed twice with 200 μL blocking buffer. The blocking buffer was discarded, and the cells were resuspended in 100 μL of streptavidin-Alexa 488 solution (Invitrogen, 1:500 in blocking buffer) and incubated at 4° C. for 1 hour. The plates were washed three times with blocking buffer and added with 200 μL of blocking buffer.
The mean fluorescence intensity (MFI) was determined using FACS Calibur (BD).

[5] = target: T3, Recombinant human CTLA-4-his protein …; assay: ELISA of 293 supernatants on coated human CTLA4-his
[6] = target: T1, human CTLA-4 expressed on cells …; assay: flow cytometry on 293F-hCTLA-4 cells

Row | Binder | binding result [1] | EC50 (read off the curve) [2] | EC50 (read off the curve) [3] | binding result [6] | other results
1 | B1 | no binding (tested: 533.3 nM) | ~2 nM | ~1 nM | – | –
2 | B2 | no binding (tested: 325.5 nM) | ~2 nM | ~1 nM | – | IC50 (read off the curve) [4]: 10 to 20 nM
3 | B3 | – | – | – | – | binding result [5]: binds
4 | B4 | – | – | – | binds | –
5 | B5 | – | – | – | binds | –
